Results: PMC10690100 (Molecular Cancer Therapeutics, 2023)
One block for each binder: values may come before it.

Assays:
[1] = target: recombinant human integrin alpha-v/beta-1 (Homo sapiens, UniProt P06756;P05556); assay: ELISA
[2] = target: recombinant human integrin alpha-v/beta-6 (Homo sapiens, UniProt P06756;P18564); assay: ELISA
[3] = target: recombinant human integrin alpha-v/beta-3 (Homo sapiens, UniProt P06756;P05106); assay: ELISA
[4] = target: recombinant human integrin alpha-v/beta-5 (Homo sapiens, UniProt P06756;P18084); assay: ELISA
Chain of recombinant human integrin alpha-v/beta-5 (P06756 31-1048, chain 1 of 2): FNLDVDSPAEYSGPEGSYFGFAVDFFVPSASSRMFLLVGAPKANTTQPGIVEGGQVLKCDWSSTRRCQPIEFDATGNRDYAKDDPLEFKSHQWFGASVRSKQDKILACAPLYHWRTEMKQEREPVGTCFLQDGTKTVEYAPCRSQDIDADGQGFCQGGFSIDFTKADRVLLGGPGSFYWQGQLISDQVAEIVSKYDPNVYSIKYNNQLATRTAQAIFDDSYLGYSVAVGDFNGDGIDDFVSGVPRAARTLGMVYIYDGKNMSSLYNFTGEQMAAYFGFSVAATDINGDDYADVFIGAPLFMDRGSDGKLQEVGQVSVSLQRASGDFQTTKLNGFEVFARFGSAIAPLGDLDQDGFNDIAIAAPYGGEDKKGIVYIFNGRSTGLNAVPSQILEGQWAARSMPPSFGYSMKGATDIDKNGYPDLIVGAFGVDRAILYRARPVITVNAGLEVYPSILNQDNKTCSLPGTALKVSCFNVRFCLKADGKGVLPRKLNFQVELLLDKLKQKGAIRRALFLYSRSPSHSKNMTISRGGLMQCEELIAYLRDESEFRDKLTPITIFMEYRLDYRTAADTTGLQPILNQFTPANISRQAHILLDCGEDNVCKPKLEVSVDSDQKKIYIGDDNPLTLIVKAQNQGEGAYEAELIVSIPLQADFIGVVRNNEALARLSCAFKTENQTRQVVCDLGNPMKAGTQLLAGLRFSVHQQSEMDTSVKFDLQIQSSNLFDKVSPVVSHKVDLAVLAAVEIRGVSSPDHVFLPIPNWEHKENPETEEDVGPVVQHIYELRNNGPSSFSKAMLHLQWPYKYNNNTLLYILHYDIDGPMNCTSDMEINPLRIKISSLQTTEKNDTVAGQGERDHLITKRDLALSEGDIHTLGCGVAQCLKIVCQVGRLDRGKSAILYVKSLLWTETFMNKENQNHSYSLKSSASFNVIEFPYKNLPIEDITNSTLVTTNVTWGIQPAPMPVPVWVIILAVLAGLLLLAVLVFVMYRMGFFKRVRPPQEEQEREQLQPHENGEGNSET
Chain of recombinant human integrin alpha-v/beta-5 (P18084 24-719, chain 2 of 2): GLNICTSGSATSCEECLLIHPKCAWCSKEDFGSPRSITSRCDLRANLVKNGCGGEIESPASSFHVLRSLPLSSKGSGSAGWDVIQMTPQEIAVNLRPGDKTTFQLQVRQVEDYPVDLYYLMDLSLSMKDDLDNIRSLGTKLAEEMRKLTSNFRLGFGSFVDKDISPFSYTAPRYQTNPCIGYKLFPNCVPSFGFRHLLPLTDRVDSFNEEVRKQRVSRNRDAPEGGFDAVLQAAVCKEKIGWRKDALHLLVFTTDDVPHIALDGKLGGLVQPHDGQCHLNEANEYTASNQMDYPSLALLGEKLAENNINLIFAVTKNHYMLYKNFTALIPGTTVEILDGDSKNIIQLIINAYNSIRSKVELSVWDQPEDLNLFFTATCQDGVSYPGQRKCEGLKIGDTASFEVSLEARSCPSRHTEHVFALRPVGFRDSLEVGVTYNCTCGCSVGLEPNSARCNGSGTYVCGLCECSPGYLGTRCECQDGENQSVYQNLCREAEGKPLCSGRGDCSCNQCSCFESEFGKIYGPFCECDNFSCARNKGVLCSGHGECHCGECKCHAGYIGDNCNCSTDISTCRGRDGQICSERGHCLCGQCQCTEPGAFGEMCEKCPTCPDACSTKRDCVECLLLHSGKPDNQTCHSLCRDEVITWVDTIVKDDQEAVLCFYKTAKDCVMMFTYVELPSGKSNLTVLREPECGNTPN

[5] = target: recombinant human integrin alpha-v/beta-8 (Homo sapiens, UniProt P06756;P26012); assay: ELISA
Chain of recombinant human integrin alpha-v/beta-8 (P06756 31-1048, chain 1 of 2): as the sequence (P06756 31-1048, chain 1 of 2) above
Chain of recombinant human integrin alpha-v/beta-8 (P26012 43-684, chain 2 of 2): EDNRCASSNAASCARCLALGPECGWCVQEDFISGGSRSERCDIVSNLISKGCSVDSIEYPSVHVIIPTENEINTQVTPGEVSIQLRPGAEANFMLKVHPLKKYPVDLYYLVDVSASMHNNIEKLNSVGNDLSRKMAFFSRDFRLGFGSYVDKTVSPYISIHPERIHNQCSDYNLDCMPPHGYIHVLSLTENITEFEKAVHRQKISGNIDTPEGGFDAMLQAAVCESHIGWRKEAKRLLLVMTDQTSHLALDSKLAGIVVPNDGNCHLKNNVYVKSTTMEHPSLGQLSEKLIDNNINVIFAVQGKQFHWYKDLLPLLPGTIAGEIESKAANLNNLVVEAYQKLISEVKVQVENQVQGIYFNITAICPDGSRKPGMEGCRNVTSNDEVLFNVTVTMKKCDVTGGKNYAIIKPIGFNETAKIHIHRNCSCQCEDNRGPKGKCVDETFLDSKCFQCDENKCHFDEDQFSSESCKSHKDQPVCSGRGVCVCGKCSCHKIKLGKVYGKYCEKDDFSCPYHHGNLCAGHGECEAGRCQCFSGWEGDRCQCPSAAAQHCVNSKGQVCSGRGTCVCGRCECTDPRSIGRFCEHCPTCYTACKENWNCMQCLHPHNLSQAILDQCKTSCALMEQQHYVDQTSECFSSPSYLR

[6] = target: human integrin beta-6 on 293F:hu beta-6 transfected cells (Homo sapiens, UniProt P06756;P18564); assay: flow cytometry on cells

Chain of recombinant human integrin alpha-v/beta-1 (P06756 31-1048, chain 1 of 2): as the sequence (P06756 31-1048, chain 1 of 2) above
Chain of recombinant human integrin alpha-v/beta-1 (P05556 21-728, chain 2 of 2): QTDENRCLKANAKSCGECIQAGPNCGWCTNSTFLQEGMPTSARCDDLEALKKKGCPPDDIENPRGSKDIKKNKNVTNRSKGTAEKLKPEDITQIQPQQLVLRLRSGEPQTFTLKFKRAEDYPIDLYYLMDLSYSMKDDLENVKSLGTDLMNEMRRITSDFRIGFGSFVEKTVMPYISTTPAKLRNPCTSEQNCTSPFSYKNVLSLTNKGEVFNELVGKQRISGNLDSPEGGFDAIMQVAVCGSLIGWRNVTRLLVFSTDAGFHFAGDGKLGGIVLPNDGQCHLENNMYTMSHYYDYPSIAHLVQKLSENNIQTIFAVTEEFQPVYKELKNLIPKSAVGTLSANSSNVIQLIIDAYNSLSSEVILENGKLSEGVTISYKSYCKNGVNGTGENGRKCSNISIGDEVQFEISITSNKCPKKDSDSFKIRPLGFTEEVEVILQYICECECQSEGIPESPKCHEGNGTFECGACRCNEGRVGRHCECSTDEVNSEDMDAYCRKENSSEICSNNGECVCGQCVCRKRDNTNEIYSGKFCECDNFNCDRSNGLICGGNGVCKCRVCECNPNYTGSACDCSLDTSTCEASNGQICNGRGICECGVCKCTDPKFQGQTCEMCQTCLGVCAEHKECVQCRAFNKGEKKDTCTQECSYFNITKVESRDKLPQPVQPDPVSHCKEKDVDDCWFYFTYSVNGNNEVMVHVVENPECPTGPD
Chain of recombinant human integrin alpha-v/beta-3 (P06756 31-1048, chain 1 of 2): as the sequence (P06756 31-1048, chain 1 of 2) above
Chain of recombinant human integrin alpha-v/beta-3 (P05106 27-718, chain 2 of 2): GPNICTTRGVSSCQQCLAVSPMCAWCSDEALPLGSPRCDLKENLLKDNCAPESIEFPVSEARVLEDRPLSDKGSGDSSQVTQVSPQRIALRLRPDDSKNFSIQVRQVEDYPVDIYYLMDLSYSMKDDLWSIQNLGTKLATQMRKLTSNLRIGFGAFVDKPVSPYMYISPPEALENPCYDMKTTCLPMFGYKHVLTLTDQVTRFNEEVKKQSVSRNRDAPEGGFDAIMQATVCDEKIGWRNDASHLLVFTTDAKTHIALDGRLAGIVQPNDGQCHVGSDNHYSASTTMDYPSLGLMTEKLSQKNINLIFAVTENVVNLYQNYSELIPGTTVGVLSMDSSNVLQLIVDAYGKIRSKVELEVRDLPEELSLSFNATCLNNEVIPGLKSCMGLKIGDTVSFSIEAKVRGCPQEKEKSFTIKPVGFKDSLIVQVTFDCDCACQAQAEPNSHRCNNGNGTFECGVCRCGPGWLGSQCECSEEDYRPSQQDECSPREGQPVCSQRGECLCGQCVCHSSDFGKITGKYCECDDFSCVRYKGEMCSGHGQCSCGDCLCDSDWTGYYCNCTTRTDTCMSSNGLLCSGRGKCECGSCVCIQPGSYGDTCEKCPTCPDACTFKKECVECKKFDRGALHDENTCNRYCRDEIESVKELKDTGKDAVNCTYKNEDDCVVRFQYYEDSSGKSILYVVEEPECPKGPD
Chain of recombinant human integrin alpha-v/beta-6 (P06756 31-1048, chain 1 of 2): as the sequence (P06756 31-1048, chain 1 of 2) above
Chain of recombinant human integrin alpha-v/beta-6 (P18564 22-709, chain 2 of 2): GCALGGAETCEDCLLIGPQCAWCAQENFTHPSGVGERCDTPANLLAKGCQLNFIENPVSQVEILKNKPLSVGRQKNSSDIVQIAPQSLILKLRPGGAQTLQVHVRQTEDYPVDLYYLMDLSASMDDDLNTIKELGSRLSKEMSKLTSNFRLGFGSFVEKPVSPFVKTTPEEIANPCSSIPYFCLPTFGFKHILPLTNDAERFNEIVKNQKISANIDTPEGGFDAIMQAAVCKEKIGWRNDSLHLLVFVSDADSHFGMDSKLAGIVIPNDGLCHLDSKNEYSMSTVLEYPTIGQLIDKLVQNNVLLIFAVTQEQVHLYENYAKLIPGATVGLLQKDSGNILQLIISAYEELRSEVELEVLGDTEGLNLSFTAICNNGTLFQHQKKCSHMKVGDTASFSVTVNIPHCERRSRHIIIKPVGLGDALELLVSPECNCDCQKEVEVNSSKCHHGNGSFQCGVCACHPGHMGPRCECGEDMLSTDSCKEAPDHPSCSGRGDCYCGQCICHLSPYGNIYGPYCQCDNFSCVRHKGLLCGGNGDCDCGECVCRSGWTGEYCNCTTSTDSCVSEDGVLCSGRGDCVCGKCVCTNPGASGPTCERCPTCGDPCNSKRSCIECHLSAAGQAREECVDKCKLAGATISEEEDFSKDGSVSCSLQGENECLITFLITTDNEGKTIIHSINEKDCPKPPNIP

binding result [1]: no binding | EC50 [2]: 0.9 nM | binding result [3]: no binding | binding result [4]: no binding | binding result [5]: no binding
B1: SGN-B6A (h2A2 conjugated to the vedotin drug-linker) (antibody, V domains shown)
VH: QFQLVQSGAEVKKPGASVKVSCKASGYSFTDYNVNWVRQAPGQGLEWIGVINPKYGTTRYNQKFKGRATLTVDKSTSTAYMELSSLRSEDTAVYYCTRGLNAWDYWGQGTLVTVSS
VL: DIQMTQSPSSLSASVGDRVTITCGASENIYGALNWYQQKPGKAPKLLIYGATNLEDGVPSRFSGSGSGRDYTFTISSLQPEDIATYYCQNVLTTPYTFGQGTKLEIK

EC50 [6]: 0.3 nM | binding result [1]: no binding | EC50 [2]: 0.7 nM | binding result [3]: no binding | binding result [4]: no binding | binding result [5]: no binding
B2: h2A2 (humanized 2A2 anti-integrin beta-6 antibody) (antibody, V domains shown)
VH: B1 VH
VL: B1 VL
